Data taken from patent US20250276077A1, “EPHA2 ANTIBODIES” (Immunome, Inc., priority 2022, published 2025).

Legend:
[1] = target: Human EphA2 (ephrin receptor A2), native, in human tumor tissue (human) (UniProt P29317); assay: IF tumor tissue Uterine, 30 ug/ml
[2] = target: Human EphA2 (ephrin receptor A2), native, in human tumor tissue (human) (UniProt P29317); assay: IF tumor tissue MELA, 3 ug/ml
[3] = target: Human EphA2 (ephrin receptor A2), native, in human tumor tissue (human) (UniProt P29317); assay: IF tumor tissue STS, 3 ug/ml
[4] = target: Human EphA2 (ephrin receptor A2), native, in human tumor tissue (human) (UniProt P29317); assay: IF tumor tissue URO, 10 ug/ml
[5] = target: Human EphA2 (ephrin receptor A2), native, in human tumor tissue (human) (UniProt P29317); assay: IF tumor tissue NSCLC-SQ, 30 ug/ml
[6] = target: Human EphA2 (ephrin receptor A2), native, in human tumor tissue (human) (UniProt P29317); assay: IF tumor tissue RCC-papillary, 0.3 ug/ml
[7] = target: Human EphA2 (ephrin receptor A2), native, in human tumor tissue (human) (UniProt P29317); assay: IF tumor tissue RCC-papillary, 0.1 ug/ml
[8] = target: Human EphA2 (ephrin receptor A2), native, in human tumor tissue (human) (UniProt P29317); assay: IF tumor tissue NSCLC-Adeno, 0.1 ug/ml
[9] = target: Human EphA2 (ephrin receptor A2), native, in human tumor tissue (human) (UniProt P29317); assay: IF tumor tissue MELA, 30 ug/ml
[10] = target: Human EphA2 (ephrin receptor A2), native, in human tumor tissue (human) (UniProt P29317); assay: IF tumor tissue Uterine, 0.3 ug/ml
[11] = target: Human EphA2 (ephrin receptor A2), native, in human tumor tissue (human) (UniProt P29317); assay: tissue staining of human cancer samples, 3 ug/ml
[12] = target: Human EphA2 (ephrin receptor A2), native, in human tumor tissue (human) (UniProt P29317); assay: IF tumor tissue ESO, 0.3 ug/ml
[13] = target: Human EphA2 (ephrin receptor A2), native, in human tumor tissue (human) (UniProt P29317); assay: IF tumor tissue NSCLC-Adeno, 3 ug/ml
[14] = target: Human EphA2 (ephrin receptor A2), native, in human tumor tissue (human) (UniProt P29317); assay: IF tumor tissue PANC, 1 ug/ml
[15] = target: Human EphA2 (ephrin receptor A2), native, in human tumor tissue (human) (UniProt P29317); assay: IF tumor tissue Uterine, 3 ug/ml
[16] = target: Human EphA2 (ephrin receptor A2), native, in human tumor tissue (human) (UniProt P29317); assay: IF tumor tissue ESO, 30 ug/ml
[17] = target: Human EphA2 (ephrin receptor A2), native, in human tumor tissue (human) (UniProt P29317); assay: IF tumor tissue RCC-papillary, 3 ug/ml
[18] = target: Human EphA2 (ephrin receptor A2), native, in human tumor tissue (human) (UniProt P29317); assay: IF tumor tissue RCC-papillary, 1 ug/ml
[19] = target: Human EphA2 (ephrin receptor A2), native, in human tumor tissue (human) (UniProt P29317); assay: IF tumor tissue MELA, 0.1 ug/ml
[20] = target: Human EphA2 (ephrin receptor A2), native, in human tumor tissue (human) (UniProt P29317); assay: IF tumor tissue NSCLC-SQ, 0.1 ug/ml
[21] = target: Human EphA2 (ephrin receptor A2), native, in human tumor tissue (human) (UniProt P29317); assay: IF tumor tissue NSCLC-Adeno, 1 ug/ml
[22] = target: Human EphA2 (ephrin receptor A2), native, in human tumor tissue (human) (UniProt P29317); assay: IF tumor tissue MELA, 10 ug/ml
[23] = target: Human EphA2 (ephrin receptor A2), native, in human tumor tissue (human) (UniProt P29317); assay: IF tumor tissue STS, 30 ug/ml
[24] = target: Human EphA2 (ephrin receptor A2), native, in human tumor tissue (human) (UniProt P29317); assay: IF tumor tissue MELA, 0.3 ug/ml
[25] = target: Human EphA2 (ephrin receptor A2), native, in human tumor tissue (human) (UniProt P29317); assay: IF tumor tissue PANC, 0.3 ug/ml
[26] = target: Human EphA2 (ephrin receptor A2), native, in human tumor tissue (human) (UniProt P29317); assay: IF tumor tissue PANC, 0.1 ug/ml
[27] = target: Human EphA2 (ephrin receptor A2), native, in human tumor tissue (human) (UniProt P29317); assay: tissue staining of human cancer samples, 10 ug/ml
[28] = target: Human EphA2 (ephrin receptor A2), native, in human tumor tissue (human) (UniProt P29317); assay: IF tumor tissue NSCLC-Adeno, 0.3 ug/ml
[29] = target: Human EphA2 (ephrin receptor A2), native, in human tumor tissue (human) (UniProt P29317); assay: IF tumor tissue PANC, 30 ug/ml
[30] = target: Human EphA2 (ephrin receptor A2), native, in human tumor tissue (human) (UniProt P29317); assay: IF tumor tissue Uterine, 0.1 ug/ml
[31] = target: Human EphA2 (ephrin receptor A2), native, in human tumor tissue (human) (UniProt P29317); assay: IF tumor tissue STS, 0.1 ug/ml

Chain of Human EphA2 (ephrin receptor A2), native, in human tumor tissue (human) (P29317 25-976): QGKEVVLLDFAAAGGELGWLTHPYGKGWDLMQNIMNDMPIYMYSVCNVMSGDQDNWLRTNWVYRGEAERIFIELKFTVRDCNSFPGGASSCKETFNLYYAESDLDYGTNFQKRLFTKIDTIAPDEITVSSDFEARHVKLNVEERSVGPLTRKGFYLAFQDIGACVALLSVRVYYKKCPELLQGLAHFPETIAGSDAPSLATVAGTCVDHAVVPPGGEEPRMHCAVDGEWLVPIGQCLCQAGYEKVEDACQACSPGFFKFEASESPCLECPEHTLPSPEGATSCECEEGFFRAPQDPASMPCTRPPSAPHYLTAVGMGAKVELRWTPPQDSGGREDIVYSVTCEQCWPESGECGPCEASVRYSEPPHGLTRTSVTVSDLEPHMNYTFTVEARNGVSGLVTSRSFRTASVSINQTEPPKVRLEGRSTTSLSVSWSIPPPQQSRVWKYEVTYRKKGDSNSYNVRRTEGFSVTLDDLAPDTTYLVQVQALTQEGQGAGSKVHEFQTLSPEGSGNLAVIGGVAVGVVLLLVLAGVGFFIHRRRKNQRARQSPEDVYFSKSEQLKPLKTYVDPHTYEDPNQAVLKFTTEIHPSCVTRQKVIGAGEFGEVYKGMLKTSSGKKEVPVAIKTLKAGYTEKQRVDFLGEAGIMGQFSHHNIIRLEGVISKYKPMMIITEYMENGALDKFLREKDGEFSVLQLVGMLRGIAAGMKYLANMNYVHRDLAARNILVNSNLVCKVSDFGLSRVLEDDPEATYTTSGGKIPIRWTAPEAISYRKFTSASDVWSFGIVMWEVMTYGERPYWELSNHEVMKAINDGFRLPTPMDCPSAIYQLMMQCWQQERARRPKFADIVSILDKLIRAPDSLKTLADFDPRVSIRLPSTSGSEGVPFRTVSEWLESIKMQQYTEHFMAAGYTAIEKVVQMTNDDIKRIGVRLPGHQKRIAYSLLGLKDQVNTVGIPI

tissue reactivity score [1]: 2
tissue reactivity score [2]: 2
tissue reactivity score [3]: 1
tissue reactivity score [4]: 2
tissue reactivity score [5]: 2
tissue reactivity score [6]: 1
tissue reactivity score [7]: 1
tissue reactivity score [8]: 1
tissue reactivity score [9]: 2
tissue reactivity score [10]: 2
Reactive (% of samples), Bladder Urothelial Carcinoma [11]: 77%
Reactive (% of samples), Breast Cancer [11]: 93%
Reactive (% of samples), Cervical Squamous Cell Carcinoma [11]: 75%
Reactive (% of samples), Colorectal Adenocarcinoma [11]: 85%
Reactive (% of samples), Head & Neck Squamous Cell Carcinoma [11]: 63%
Reactive (% of samples), Liver Hepatocellular Cell Carcinoma [11]: 39%
Reactive (% of samples), Melanoma [11]: 46%
Reactive (% of samples), Ovarian Cancer [11]: 71%
Reactive (% of samples), Soft Tissue Sarcoma [11]: 14%
Reactive (% of samples), Stomach Adenocarcinoma [11]: 88%
Reactive (% of samples), Testicular Cancer [11]: 17%
Reactive (% of samples), Thyroid Cancer [11]: 13%
Reactive (% of samples), Uterine Cancer [11]: 38%
tissue reactivity score [12]: 1
tissue reactivity score [13]: 1
tissue reactivity score [14]: 2
tissue reactivity score [15]: 2
tissue reactivity score [16]: 2
tissue reactivity score [17]: 2
tissue reactivity score [18]: 1
tissue reactivity score [19]: 1
tissue reactivity score [20]: 1
tissue reactivity score [21]: 1
tissue reactivity score [22]: 2
tissue reactivity score [23]: 2
tissue reactivity score [24]: 2
tissue reactivity score [25]: 2
tissue reactivity score [26]: 2
Reactive (% of samples), Bladder Cancer (Urothelial) [27]: 86%
Reactive (% of samples), Breast Cancer [27]: 79%
Reactive (% of samples), Cervical Cancer (Squamous) [27]: 100%
Reactive (% of samples), Esophageal Cancer (Squamous) [27]: 33%
Reactive (% of samples), Head & Neck Cancer (Squamous) [27]: 87%
Reactive (% of samples), Liver Cancer (HCC) [27]: 82%
Reactive (% of samples), Non-Small Cell Lung Cancer [27]: 90%
Reactive (% of samples), Ovarian Cancer [27]: 88%
Reactive (% of samples), Renal Cancer [27]: 47%
Reactive (% of samples), Soft Tissue Sarcoma [27]: 20%
Reactive (% of samples), Stomach Cancer (Adenocarcinoma) [27]: 88%
Reactive (% of samples), Testicular Cancer [27]: 56%
Reactive (% of samples), Thyroid Cancer [27]: 31%
Reactive (% of samples), Uterine Cancer [27]: 92%
tissue reactivity score [28]: 1
tissue reactivity score [29]: 2
tissue reactivity score [30]: 1
tissue reactivity score [31]: 1
Substance: AB-010018 (mouse monoclonal antibody precursor of DS-8895a; mouse IgG2a format)
